One test deals with CD32a167H (UniProt P12318). In words: SPR, BIAcore 8K, antibody captured on anti-Fab chip, steady state affinity fit.
The next test has as its target CD32a167R (UniProt P12318). The test is described as above.
A further test deals with CD32b (FcgammaRIIb) (UniProt P31994). The test is described as above.
In another test the target is CD16a176F (UniProt P08637). In words: SPR, BIAcore 8K, antibody captured on anti-Fab chip, single-cycle kinetics, bivalent analyte model. In general terms: In SPR one partner is held on a chip, and binding of the other changes the refractive index at the surface.
Sequence of CD16a176F (P08637 17-208 limits assumed): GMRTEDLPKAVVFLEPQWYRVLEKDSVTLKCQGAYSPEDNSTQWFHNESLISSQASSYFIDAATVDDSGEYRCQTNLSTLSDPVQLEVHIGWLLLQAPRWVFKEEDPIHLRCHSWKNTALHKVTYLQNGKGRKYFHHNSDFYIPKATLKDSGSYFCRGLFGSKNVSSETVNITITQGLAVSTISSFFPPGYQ
The target in another test is CD16a176V (UniProt P08637). The test is described as above.
Sequence of CD16a176V (P08637 17-208 F176V limits assumed): as the sequence (P08637 17-208 limits assumed) above, with F160V counted along it
The next test concerns the target CD16b (FcgammaRIIIb) (UniProt O75015). The description is as above.
In another test the target is CD64 (FcgammaRI) (UniProt P12314). In words: SPR, single-cycle kinetics, bivalent analyte model.
Sequence of CD64 (FcgammaRI) (P12314 16-288 limits assumed): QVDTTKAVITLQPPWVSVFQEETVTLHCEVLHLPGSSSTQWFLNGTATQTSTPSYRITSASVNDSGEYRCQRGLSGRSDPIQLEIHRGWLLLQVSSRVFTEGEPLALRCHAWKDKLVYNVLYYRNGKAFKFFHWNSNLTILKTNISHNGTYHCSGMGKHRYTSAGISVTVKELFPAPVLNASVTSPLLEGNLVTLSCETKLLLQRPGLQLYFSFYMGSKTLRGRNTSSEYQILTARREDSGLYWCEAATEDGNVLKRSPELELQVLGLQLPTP

Sequence of CD32b (FcgammaRIIb) (P31994 46-217 limits assumed): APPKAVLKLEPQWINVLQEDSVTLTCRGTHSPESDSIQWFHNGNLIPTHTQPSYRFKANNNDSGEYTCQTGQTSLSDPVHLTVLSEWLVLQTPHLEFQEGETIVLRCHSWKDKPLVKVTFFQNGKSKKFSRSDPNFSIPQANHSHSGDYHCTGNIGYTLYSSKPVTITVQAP
Sequence of CD32a167H (P12318 36-218 limits assumed): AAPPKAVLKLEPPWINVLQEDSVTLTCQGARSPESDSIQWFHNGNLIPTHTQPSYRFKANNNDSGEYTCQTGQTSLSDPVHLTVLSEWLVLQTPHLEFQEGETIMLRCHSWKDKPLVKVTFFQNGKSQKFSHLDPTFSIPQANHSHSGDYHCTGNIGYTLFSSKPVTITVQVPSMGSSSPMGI
Sequence of CD32a167R (P12318 36-218 H167R limits assumed): as the sequence (P12318 36-218 limits assumed) above, with H132R counted along it

Usually koff stands for the rate constant with which the complex falls apart. Broadly, the kon is a measure of how fast the partners come together. The low end stands for slower complex formation, the high end for faster complex formation. Take “CD-WT antibody (human IgG1, m1,17 allotype, wild-type CD loop)”: the Kd with CD32a167H came to 450 nM; in the test with CD32a167R it was 439 nM; with CD32b (FcgammaRIIb) it was 1530 nM; with CD16a176F, 869 nM; with CD16a176V, 241 nM; with CD16b (FcgammaRIIIb), 426 nM. In addition, the koff with CD16a176F stood at 0.185 s⁻¹; with CD16a176V, 0.181 s⁻¹; with CD16b (FcgammaRIIIb) it was 0.166 s⁻¹. Besides, the results for the kon with CD16a176F, in the test with CD16a176V and with CD16b (FcgammaRIIIb) were 213000 M⁻¹ s⁻¹, 751000 M⁻¹ s⁻¹ and 389000 M⁻¹ s⁻¹, respectively.

Substance “CD-GLU antibody (human IgG1, m1,17 allotype, CD loop replaced by the Glu epitope YMPMENNY)” had a fold increase in off-rate relative to CD-WT in the test with CD64 (FcgammaRI) of 1.2 fold. Further, the Kd in the test with CD32a167H worked out at 505 nM; in the test with CD32a167R, 488 nM; with CD32b (FcgammaRIIb), 1610 nM; in the test with CD16a176F, 1050 nM; with CD16a176V, 334 nM; with CD16b (FcgammaRIIIb), 556 nM. Moreover, the koff with CD16a176F stood at 0.189 s⁻¹; with CD16a176V it was 0.146 s⁻¹; with CD16b (FcgammaRIIIb) it was 0.168 s⁻¹. Also, the results for the kon in the test with CD16a176F, with CD16a176V and in the test with CD16b (FcgammaRIIIb) were 181000 M⁻¹ s⁻¹, 438000 M⁻¹ s⁻¹ and 302000 M⁻¹ s⁻¹, respectively.
